Laboratory results: US20170052184A1 (published 2017)

Columns and labels:
HCV Core1-169 [1] = target: T1, HCV Core1-169 (HCV-1, UniProt P26664 1-169); experiment: EIA, core1-169 coated on plate
T1 construct: also called recombinant HCV core antigen
T1 sequence: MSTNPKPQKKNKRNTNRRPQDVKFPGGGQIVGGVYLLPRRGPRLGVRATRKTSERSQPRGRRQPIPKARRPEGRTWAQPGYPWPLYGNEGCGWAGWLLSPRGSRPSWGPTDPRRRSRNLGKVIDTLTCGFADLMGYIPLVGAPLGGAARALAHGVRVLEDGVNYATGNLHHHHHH

HCV Core1-169 [2] = target: T1, HCV Core1-169; experiment: EIA, core1-169 captured by mAb 14-153-229
Also: test concentration or dose not given here.

Row | Binder | OD (A492) (HCV Core1-169 [1]) [OD] | OD (A492) (HCV Core1-169 [2]) [OD]
1 | HCV 208A-1064 (antibody, V domains shown) VH: EVQLQQSGPELVKPGASVKISCKTSGYTFTEYAMHWMKQSHGKSLEWIGGINPTNGDTIYNQKFKDKAKLTVDRSSSTAYMELRSLTSDDSALFYCARRELDYFASWGQGTTLTVSS VL: DIVLTQSPASLIVSLGQTATISCRASQSVSTSRFSYLHWIQQKPGQPPKLLIKYASNLESGVPVRFSGSGSGTDFTLNIHPVEEEDTATYFCQHSWEFPFTFGSGTKLKIKR | 0.94 | 1.57
2 | HCV 208B-1094 (antibody, V domains shown) VH: EVQLQQSGPELVKPGASVKISCKTSGYTFTEYAMHWMKQSHGKSLEWIGGINPTNGDTIYNQRFKDKAKLTVDRSSSTAYMELRSLTSDDSALFYCARRELDYFASWGQGTTLTVSS VL: DIVLTQSPASLIVSLGQTATISCRASQSLSTSRFSYVHWIQQKPGQPPKLLIKYASNLESGVPVRFSGSGSGTDFTLNIHPVEEEDTATYFCQHSWEFPFTFGSGTKLKIKR | 0.9 | 1.51
3 | HCV 208A-293 (antibody, V domains shown) VH: EVQLQQSGPELVKPGASVKISCKASGFTFTEYAMHWMKQSHGKSLEWIGGINPTNGDAIYNQKFKDKAKLTVDRSSSTAYMELRSLTSDDSALFYCARRELDYFPSWGQGTTLTVSS VL: DIVLTQSPASLIVSLGQRATISCRASQSVSTSRFSYVHWIQQKPGQPPKLLIKYASNLESGVPVRFSGSGSGTDFILNIHPVEEEDTATYFCQHSWEFPFTFGSGTKLEIKR | 1.41 | 2.31
4 | HCV 208B-327 (antibody, V domains shown) VH: EVQLVESGGGLVKPGGSLKLSCAASGFTFSDSYMYWVRQTPDQRLEWVATISDGGSYTFYPDSVKGRFTISRDNAQNNLYLQMSSLKSEDTAMYYCASPHAGYFGWFAYWGRGTLVTVSA VL: DIVMTQAAFSNPVTPGTSVSISCRSSKSLLHSNGITYLYWYLQKPGQSPQLLIYQMSKIASGVPDRFRSSGSGTDFTLRISRVEAADVGVYYCAQNLELPWTFGGGTKLEIKR | 0.14 | 0.11
5 | HCV 208A-877 (antibody, V domains shown) VH: QLQQSGPELVKPGASVKISCKTSGYTFTENAMHWVKQSRGKSLEWIGGVNPNNGDTVYTQKFKGKATLTVAKSSSTAYMELRTMTCEESTVYYCASREPDFFDYWGQGSSVTVSS VL: QIVLTQSPAIMSVSPGEKVSMTCSASSSVTYMHWYQQKSGTSPKRWIYDTSELASGVPARFSGSGSGTTYSLTISSMEAEDAATYYCQQWSNKPLTFGAGTKLELKR | 0.9 | 1.25
6 | HCV 208B-178 (antibody, V domains shown) VH: DVKLVESGGGLVKLGGSLKLSCAASGFTFSSYYMSWVRQTPEKRLELVAAINSNGGSTYYPDTVKGRFTISRDNAKNTLYLQMSSLKSEDTALYYCARHGGLGRRDWYFDVWGAGTTVTVSS VL: DIVLTQSPASLAVSLGQRATISCRASESVDNYGISFMHWYQQKPGQPPKLLIYRASNLESGIPARFSGSGSRTDFTLTINPVETDDVATYYCQQSNKDPFTFGSGAKLEIKR | 0.89 | 1.09
7 | HCV 208B-515 (antibody, V domains shown) VH: QVQLQQPGAELVKPGASLKLSCRASGYTFTSYWIHWVKQRPGQGLEWIGEIDPSDSYTNYNQKFKGKATLTVDKSSRAAYMQLSSLTSEDSAVYYCARHYYGVFDSWGQGTKLTVSS VL: QIVFTQYPAIMSASLGERVTMTCTASSSVTSSYLHWFQQKPGSSPKLWIYSTSNPGSGVPARFSGRGSGTSYSLSISSMEAEDAATYYCLQFHRSPWTFGGGTKLEIRR | 0.06 | 0.08
8 | HCV 208B-1096 (antibody, V domains shown) VH: QVQLQQSGAGLAKPGASVKMSCKASGYTFTANKMHWAKQRPGQGLEWIGYIDPSSGYTEYNHKIQYKATLTADTSSSTAYMQLSTLTFEDSAVYYCTNFAYWGQGTLVTVSA VL: DIVMTQTPLTLSVTIGQPASISCKSSQSLLFTNGKTYLNWFLQRPGQSPKRLIYLLSKLDSGVPDRFSGSGSGTDFTLKISRVEAEDLGVYYCLQSTYFPLTFGAGTKLELKR | 0.49 | 1.75
9 | HCV 208B-547 (antibody, V domains shown) VH: QVQLQQSGAELAKPGASVKMSCKASGYTFTSNKMHWAKQRPGQGLEWIGYIDPSSGYTEYNQKIKDKATLTADKSSSTAYMQLSSLTSEDSAVYYCTNFAYWGQGTLVTVSA VL: EVVLTQSPAITAASLGQKVTITCRASSSVSYMHWYRQKSGTSPQPWIYEISTLASGVPTRFRASGSGTSYSLTISSMEAEDAAIYYCQQWNYPLTFGAGTKLELKR | 0.46 | 1.62
10 | HCV 208B-395 (antibody, V domains shown) VH: QVQLQQSGAGLAKPGASVKMSCKASGYTFTANKMHWTKQRPGQGLEWIGYIDPSSGYTQYNHKIQDKATLTADTSSSTAYMQLSSLTFEDSAVYYCTNFAYWGQGTLVTVSA VL: DIVLTQSPATLSVTPGDRVSLSCRASQRIYNYLHWYQQKSHESPRLLIKYASQSISGIPSRFSGSGSGTDFILTINSVETEDFGMYFCQQSNSWPLTFGAGTKLELRR | 0.5 | 1.95
11 | HCV 208B-589 (antibody, V domains shown) VH: QVQLQQSGAGLAKPGASVKMSCKASGYTFTANKMHWAKQRPGQGLEWIGYIDPSSGYTEYNHKIQDKATLTADTSSSTAYMQLSSLTFEDSAVYYCTNFAYWGQGTLVTVSA VL: DIVMTQTPLTLSVTIGQPASISCKSSQSLLFTNGKTYLNWFLQRPGQSPKRLIYLLSKLDSGVPDRFSGSGSGTDFTLKISRVEAEDLGVYYCLQSTYFPLTFGAGTKLELKR | 0.68 | 1.29
12 | HCV 208B-189 (antibody, V domains shown) VH: QVHLQQSGAELAKPGASVQMSCKASGYTFTANKMHWARQRPRQGLEWIGYIDPASGYTEYNQKIKDRATLTADKSSSTAYMQLSSLTSEDSAVYYCTNFAYWGQGTLVTVST VL: not shown | 0.49 | 1.81
13 | HCV 208B-612 (antibody, V domains shown) VH: EVQLQQSGPELVKPGASVKMSCKASGYRFTSYVMHWVRQKPGQGLEWIGYIDPHNDDTKYSEKFRGKATLTSDKSSTTAYMELSSLTSEDSAVYYCVRYSYDRDYSPMDYWGQGTSVTVSS VL: QIVLTQSPTLMSASPGEKVTMTCSASSTVTYIYWYQQKPGSSPRLWMYDTFNLVSGVPARFSGSRSGTSYFLTISSMEGEDAATYYCQQYSDSPYTFGGGTKLEIKR | 0.18 | 1.2
14 | HCV 208B-408 (antibody, V domains shown) VH: EVKLVESGGGLVQPGGSLRLSCASSGFTFTDYYMSWVRQPPGKALEWLGFIRNKAYGYTTEFSASVNGRFTISRDDSQSVPYLQMNTLRAEDSATYYCARVLYYDYGGFAYWGQGTLVTVST VL: DIQMTQSPASLSASVGETVTITCRASGNIHTYLAWYQQKQGKSPQLLVYNANTLADGVPSRFSGSGSGTQFSLKINSLQPDDFGSYYCQHFWSAPWTFGGGTQLEIKR | 0.09 | 0.09
15 | HCV 208B-672 (antibody, V domains shown) VH: EVKLVESGGSLVQPGGSLKLSCAASGFNFNTYAMSWVRQTPEKRLEWVAYISNGGGNTYYVDTVKGRFTISRDNAKNTLYLRMSSLKSEDTAMYYCARHGLYWGYSMDYWGQGTSVTVSS VL: DIQMTQSPSSLSASLGERVSLTCRASQDIGGSINWLQQEPDGTIKRLIYATSSLDSGVPKRFSGSRSGSDYSLTISSLESEDFVDYYCLQYASSPPTFGGGTKLEIKR | 1.77 | 0.99
16 | HCV 208B-793 (antibody, V domains shown) VH: EVKLVESGGGLVQPGGSLKLSCAASGFTFSSYAMSWVRQTPERRLEWVTYISNGGGSTYYSDTVKGRFTFSRDNAKNTLYLQMSSLKSEDTAMYYCARHGLGRTGFASWGQGTLVTVSA VL: DIVMTQSHKFMSTSVGDRVSITCKASQDVGTAVAWYQQKPGQSPKLLIYWASTRHTGVPDRFTGSGSGTDFTLTISNVQSEDLADYFCQQYSNYLTFGAGTKLEVKR | 0.85 | 0.17
17 | HCV 208B-517 (antibody, V domains shown) VH: QVQLKQSGPGLVQPSQSLSITCTVSGFSLITHGVHWVRQSPGKGLEWLGVIWSGGSTDYNAAFISRLSISKDTSKSQVFLKMSSLQADDTAIYYCARNGGATAFDYWGQGTTLTVSS VL: DIVMTQSPATLSVTPGDRVSLSCRASQSISDYLHWYQQKSHESPRLLIKYASQSISGIPSRFRGSGSGSHFTLSINSVEPEDVGVYYCQNGHSFPWTFGGGTKLEIKR | 0.79 | 0.97
18 | HCV 208B-1024 (antibody, V domains shown) VH: EVQLVESGGDLVKPGGSLKLSCAASGFTFSNYGMSWVRQTPDKRLEWVATISSGGSYSYYPDSVKGRFTISRDNAKNILYLQMSSLKSEDTAMYYCASLYYGYGDYWGQGTAFTVSS VL: DVLMTQTPLSLPVSLGDQASISCRSSQSIVHSNGNTYLEWYLQKLGQSPKLLIYRVSNRFSGVPDRFSGSGSGTDFTLKISRVEAEDLGVYYCFQGSHVPWTFGGGTKLEIKR | 0.6 | 0.31
19 | HCV 208A-352 (antibody, V domains shown) VH: QGQMQQSGAELVKPGASVKLSCKTSGFTFSSSFISWLKQKPGQSLEWIAWIYAGTGNTNYNQKFTDKAQLTVDTSSSTAYMQFSSLTTEDSAIYYCAISGTGFTYWGQGTLVTVSA VL: DVLMAQTPLSLPVTLGDQASISCRSSQSLVHSNGNTYLEWFLQKPGQSPKLLIYNVSNRFSGVPDRFSGSGSGTDFTLKISRVEAEDLGVYYCFQGSHVPLTFGSGTKLEIKR | 0.1 | 0.53
20 | HCV 208B-281 (antibody, V domains shown) VH: QGQLQQSGAELVKPGASVKLSCKTSGFTFSSSYISWLKQRPGQSLEWIAWIYAGTGGTNYNQKFTDKAQLTVDTSSSTAYMQFSSLTTEDSAIYYCAISGTGFIYWGQGTLVTVSA VL: DVLMTQTPLSLPVSLGDQASISCRSSQSLVHNNGNTYLEWFLQKPGQSPKLLIYKVSNRFSGVPDRFSGSGSGTDFTLKISRVEAEDLGVYYCFQGSHVPFTFGSGTKLEIKR | 0.09 | 0.11
